Test results reported in PMC10579561, “Real flue gas CO2 hydrogenation to formate by an enzymatic reactor using O2- and CO-tolerant hydrogenase and formate dehydrogenase” (Frontiers in Bioengineering and Biotechnology, 2023).

Substrate: NC(=O)C1=CN([C@@H]2O[C@H](COP(=O)(O)OP(=O)(O)OC[C@H]3O[C@@H](n4cnc5c(N)ncnc54)[C@H](O)[C@@H]3O)[C@@H](O)[C@H]2O)C=CC1
Test: purified protein
Assay type: biochemical, Methylorubrum extorquens
Settings: 100 mM sodium bicarbonate, N2-purged 200 mM Kpi pH 6.5 (no O2 or CO), NADH varied 6.25-100 µM, table header prints NAD+, free enzyme

B1: MeFDH1 (Methylorubrum extorquens AM1) (protein)
chain: MSEASGTVRSFAHPGRGRNVARAVPKGRQVDPHAKVEIEELLGTRPRQRDLLIEHLHLIQDTYGQISADHLAALADEMSLAFAEVFETATFYAHFDVVKEGEADIPRLTIRVCDSITCAMFGADELLETLQRELASDAVRVVRAPCVGLCDHAPAVEVGHNFLHRADLASVRAAVEAEDTHAHIPTYVDYDAYRAGGGYATLERLRSGELPVDDVLKVLDDGGLRGLGGAGFPTGRKWRSVRGEPGPRLMAVNGDEGEPGTFKDQLYLNTDPHRFLEGMLIGAHVVEAADVYIYLRDEYPISREILAREIAKLPEGGTRIHLRRGAGAYICGEESSLIESLEGKRGLPRHKPPFPFQVGLFNRPTLINNIETLFWVRDLIERGAEWWKSHGRNGRVGLRSYSVSGRVKEPGVKLAPAGLTIQELIDEYCGGISDGHSFAAYLPGGASGGILPASMNDIPLDFGTLEKYGCFIGSAAVVILSDQDDVRGAALNLMKFFEDESCGQCTPCRSGTQKARMLMENGVWDTDLLGELAQCMRDASICGLGQAASNPVSTVIKYFPDLFPEPRAVAAE
notes: with Tungsten-containing formate dehydrogenase alpha subunit
  Km: 26.38 ± 1.16 µM
  kcat: 2.27 ± 0.064 s⁻¹
  kcat/Km: 86200 ± 3000 M⁻¹ s⁻¹
